These results are taken from patent publication US20220119496A1, “INHIBITORS OF CYSTEINE PEPTIDASES ISOLATED FROM NATURAL RAW MATERIALS AND USE OF THE INHIBITORS IN MEDICINE AND VETERINARY MEDICINE” (priority 2019, published 2022).

Where “and” joins values, the source holds several entries; their conditions need not be identical. Equal values may be shown once.

Data set [1] has as its system cysteine gingipain in gingival pocket fluids. In words: Inhibition of cysteine gingipain activity in gingival pocket fluids of patients with periodontitis (BApNA substrate). Type of data set: biochemical, human. As to conditions: not exceeded even with excess inhibitor.
Data set [2] has the same test system. The data set can be described thus: In vitro inhibition of cysteine gingipain activity in human gingival pocket fluids by egg white cystatin (BANA substrate). Format: biochemical. As to conditions: Table 6. How it is done: (§1) A solution containing known cystatin from egg white with a concentration of 0.02% and activity of 12 U/mg and 20% glycerin was used to rub the gums of dogs (once a day) and added 0.2 ml to a bowl with 200 ml drinking water (1 mU)/ml cystatin) for 4-6 weeks. Liquids from gingival pockets were removed using plaque paper, which was placed in 1 ml saline and frozen at −80° C., before removing plaque calculus. Then, after the aforementioned cystatin therapy from egg white, fluids from the gingival pockets were taken again in an analogous manner and frozen. After obtaining the desired amount of samples, they were thawed, sonicated, centrifuged to then determine the activity of cysteine gingipain in 100 μL samples using a BANA substrate (Benzoyl-arginyl-beta-naphthylamide). Test samples with a volume of 100 μl were preincubated at 37° C. in 0.01 M phosphate buffer pH 6.0 with the addition of 1 μM DL-cysteine and 2 μM EDTA for 10 minutes, then a solution of N-benzoyl DL-arginyl hydrochloride-β-naphthylamide (BANA) so that its final concentration in the test sample was 1.5 mM, and then incubated under these conditions for 30 minutes. After this time, the reaction was stopped by determining the colorimetrically released β-naphthylamine.
As one unit of enzymatic activity of cysteine proteinases is the amount of enzyme which releases 1.0 nmole of β-naphthylamine from the substrate within one hour under the described incubation conditions, whereas as an inhibitor unit—the amount that inhibits 1 enzyme unit.
Patients with periodontitis were taken from the gingival pockets before removing the plaque using tissue strips, which were placed in 1 ml of saline and then frozen at −80° C. […] The solution was sonicated, centrifuged and 100 μl of supernatant was taken for determinations. Various amounts of cystatin were added to the test solution, and then the protease activity was determined by the BANA test as in Example 1.

Data set [3] shares this test system. The data set can be described thus: In vivo inhibition of cysteine gingipain activity in dogs (gums rubbed and drinking water with cystatin). How it is done:
as §1
Standard tests for which the final result was determined were prepared in parallel with the tested samples, which were solutions containing all components as in the actual tests, except that after adding the BANA substrate the reactions were immediately stopped and the colorimetrically determined free β-naphthylamine was determined. As one unit of enzymatic activity of cysteine proteinases is the amount of enzyme which releases 1.0 nmole of β-naphthylamine from the substrate within one hour under the described incubation conditions, whereas as an inhibitor unit—the amount that inhibits 1 enzyme unit.

Data set [4] deals with cysteine gingipain in dogs gingival pockets. In words: In vitro inhibition of cysteine proteases in gingival pocket fluid of dogs (BANA). Set-up: key to Cysteine gingipain activity after adding cystatin: enzyme units; 1 U releases 1.0 nmol β-naphthylamine per hour. Format: biochemical. As to conditions: 40 ng cystatin. Here is the method: as §1
Standard tests for which the final result was determined were prepared in parallel with the tested samples, which were solutions containing all components as in the actual tests, except that after adding the BANA substrate the reactions were immediately stopped and the colorimetrically determined free β-naphthylamine was determined. […]
Before periodontal removal, dogs with periodontal disease collected fluid from the gingival pockets using tissue strips that were placed in 1 mL of saline. […] Various amounts of cystatin were added to the test solution, and then the protease activity was determined using the BANA substrate as in Example 1.

Data set [5] relates to cysteine gingipain in gingival pocket fluids. The data set can be described thus: Dog case study, cystatin in drinking water and gum rubbing. Type of data set: in vivo. Conditions: one dog. How it is done: A female mixed breed, weighing about 5 kg and 7 years old, became dejected and avoided food, staggered and turned over, and purulent discharge leaked from her nose. […] In dormancy, the stone was removed along with four molars on the left. During sleep, gingival pocket fluids were removed from 3 gingival pockets on the right using strips of paper and placed in tubes containing 1 ml of saline. After grinding the paper with ultrasound and centrifugation, the activity of cysteine gingipain was determined in solutions. Their activity ranged from 1.35 to 0.89 units based on 1.0 ml of liquid based on the amount of β-naphthylamine released. For 4 weeks, the dog was given water to drink with the addition of cystatin from egg protein at a concentration of about 10-6% and rubbed the gums with a pad impregnated with 0.001% cystatin from egg white 3-4 times a day. […] After 6 years of surgery, there were no changes in the periodontium. After some time, the dog got used to rubbing his gums, which probably saved him from changes in the periodontium.

Data set [6] relates to chicken embryo. In words: Toxicity in chicken embryo studies. Type of data set: in vivo.
A short description of data set [7]: Storage stability of inhibitory activity. As to conditions: about 4° C. Format: physicochemical. The source says:
The protein fractions are combined and the whole is subjected to separation on a membrane permeable compounds of a certain size. Because at this stage the interest is focused on the isolation of peptides and not cystatins, the combined protein fractions were not stabilized with glycerol or other glycols. The main reason for not using a stabilizer is the high probability of blocking the filters used in the separation stage. The combined protein fractions (eluate from the affinity chromatography column) are filtered as quickly as possible using membrane permeable to 3 kDa molecules, and then the low molecular filtrate is desalted on membrane permeable to 700 Da. […] The resulting low molecular weight oligopeptides are able to inhibit cysteine peptidase enzymes such as autogenic cathepsins or bacterial enzymes. The low molecular weight cysteine peptidase inhibitors of the invention thus obtained are stored either in a refrigerator (+4° C.) or in a freezer.
Inhibitory activity of cystatin and several-amino acid inhibitors of cysteine peptidases were determined in relation to cysteine gingipain in gingival pocket fluids and cysteine cathepsins in cancerous tissues and veins of people with atherosclerosis or native cathepsin B.

For data set [8], the system named is cysteine gingipain in gingival pocket fluids. As to conditions: as disclosed in PL 428931; cited from earlier work.
In data set [9] the test system is cysteine gingipain in dogs gingival pockets. Conditions: as disclosed in PL 428931; cited from earlier work.
In data set [10] the test system is Porphyromonas gingivalis. As to conditions: concentration of 50 WI; cited from earlier work.
Where [11] appears, read: individual samples 1-11, after 4-6 weeks cystatin treatment vs before plaque removal, listed as cystatin solution from egg white.

B1: cystatin from egg white: known cystatin from egg white, activity 12 U/mg, stabilized with glycerol; natural cysteine peptidase inhibitor (protein, UniProt P01038 24-139, looked up)
Cystatin: SEDRSRLLGAPVPVDENDEGLQRALQFAMAEYNRASNDKYSSRVVRVISAKRQLVSGIKYILQVEIGRTTCPKSSGDLQSCEFHDEPEMAKYTTCTFVVYSIPWLNQIKLLESKCQ
For the molecule B1, in data set [1], the “inhibition of proteolytic activity in gingival pocket fluids compared to total activity” value stood at 85%. In addition, the “E/F*100 inhibited activity, Average” value in data set [2] (average of 23 samples) amounted to 15.89 ± 6.28%. Besides, in data set [2] (individual samples 1-23), the “CP activity after adding cystatin” value was 0.47 U/ml (3×) and 0.61 U/ml and 1.16 U/ml and 0.98 U/ml (2×) and 1.12 U/ml (2×) and 0.75 U/ml and 0.34 U/ml and 0.87 U/ml and 1.22 U/ml and 1.11 U/ml and 2.19 U/ml and 2.52 U/ml and 1.97 U/ml and 3.96 U/ml and 2.18 U/ml and 3.11 U/ml and 1.28 U/ml and 2.74 U/ml and 1.73 U/ml; the “E/F*100 inhibited activity” value was 18.29% and 28.11% and 10.59% and 10.08% and 26.86% and 18.94% and 9.63% and 5.67% and 11.03% and 14.79% and 10.68% and 14.30% and 8.99% and 14.76% and 11.46% and 21.57% and 24.84% and 24.00% and 22.20% and 24.47% and 13.87% and 20.10% and 16.83%. Moreover, in data set [3] (average of 11 samples), the “% inhibited activity, Average” value is “Approximately 67%” and the “% remaining activity, Average” value is given as 32.97 ± 21.49%. Also, the “% inhibited activity, Average” value in [3] (average of 11 samples, listed as cystatin solution from egg white) worked out at 67.05 ± 21.52%. Also, in data set [3] (setting [11]), the “% inhibited activity” value was 94.79% and 77.31% and 79.23% and 58.9% and 64.33% and 93.50% and 24.24% and 81.26% and 67.68% and 54.78% and 41.55%; the “% remaining activity” value was 5.51% and 22.69% and 20.77% and 41.10% and 35.67% and 6.50% and 75.76% and 18.73% and 32.32% and 45.22% and 58.45%. In data set [4] (average of 19 dogs), the “% inhibited activity, Average” value is 87.28 ± 8.92% and the “% remaining activity, Average” value was 12.72 ± 8.92%. The “Cysteine gingipain activity after adding cystatin” value in data set [4] (dogs gingival pocket fluid, individual samples 1-19, 12 units/mg protein) was 0.06 (2×) and 0.04 (3×) and 0.03 (3×) and 0.08 and 0.02 (2×) and 0.07 (2×) and 0.09 and 0.15 and 0.24 and 0.13 (2×) and 0.23. Also, the “change of gingipain activity in gingival pocket fluids” value in [5] (4 weeks cystatin in water and gum rubbing 3-4 times a day, sampled after 3 months) was “reduced almost five-fold”. Besides, the “tartar build-up and gum redness” value in data set [5] (after 3 months) is “no tartar build-up or redness in the gums”. Further, in [6], the “toxicity relative to 0.02% chlorhexidine” value is listed as “about 105 times lower”. Moreover, the “inhibitory activity after storage for several months in the refrigerator” value in data set [7] was “dimerizes and loses its biological activity”. Further, the “blocked proteolytic activity in the gingival pocket fluid, humans” value in data set [8] is on record as “about 85%”. Besides, the “blocked total proteolytic activity, dogs” value in [9] is reported as “about 90%”. Besides, the “elimination of bacteria from an infected area” value in data set [10] was “up to 50%”.
